Test system: Female C57BL/6 recipient mice (CD45.2+)
Test: HY bone marrow transplantation model, male CD45.1 BM into female CD45.2 mice (FACS of blood and spleen)
Type: in vivo, mouse
Description: A transplantation model utilizing male bone marrow (BM) cells from C57BL/6 mice transplanted into female mice of the same starin was used to study whether C1ORF32 ECD-Fc induces immune tolerance. In this model BM cells of the male mouse are rejected by the female recipients due to mismatch in the minor histocompatibility antigen encoded by the Y chromosome (Hya). To allow identification of the male cells in the female mice blood, male mice expressing CD45.1 isotype were selected while the female mice carry CD45.2 isotype. This model provides a tool for testing the effect of potential drugs on induction of tolerance towards the grafted cells.
In this model, C1ORF32 ECD-Fc (SEQ ID NO:42) treatment started one week before bone marrow transplantation and continued for five weeks. Female recipient mice were followed for percentage of CD45.1+ and CD45.2+ cells present within the blood.
Female C57BL/6 recipient mice (CD45.2+) were sub-lethally irradiated with 200 rads/cGy 24 hours before transplantation of either female C57Bl/6 (CD45.1+) or male C57Bl/6 (CD45.1+) 5×10^6 bone marrow cells. Recipient mice were allocated into treatment groups as detailed below (n=6 per group). Treatments were given at 300 ug/dose i.p, 3×/wk starting one week prior to transplantation and continued for 4 weeks following transplantation, giving a total of 15 treatments during this 5 weeks period.
1. Female CD45.1 into female CD45.2 2. Male CD45.1 into female CD45.2+anti-CD40L (300 ug/dose) (Clone MR-1; BioXCell, Cat#BE0017-1) 3. Male CD45.1 into female CD45.2+C1ORF ECD-Fc (SEQ ID NO:42) (300 ug/dose)2 4. Male CD45.1 into female CD45.2+Control Ig (mouse IgG2a) (300 ug/dose)
Beginning at 2 weeks following bone marrow transplantation, blood samples from the tail were collected from each mouse once a week for 4 weeks. Approximately 2-3 drops of blood were collected per mouse into 200 ul of PBS+EDTA (50 mM), samples were spun down, and RBCs lysed with ammonium chloride. The cells were washed 3× with PBS, stained with the viability dye Aqua Dead Cell Stain (Invitrogen; Cat#L34957), blocked with Fc Receptor block (anti-mouse CD16/32; eBioscience; Cat#14-0161-86), and stained with anti-mouse CD45.1 APC-Cy7 (eBiosciences; Cat#47-0453-80) and anti-mouse CD45.2 FITC (eBioscience; Cat#11-0454-82). The analysis for chimerism was determined by flow cytometric analysis (on total live cells) for the percentage of CD45.1+ versus CD45.2+ cells present in the blood of female recipient mice.
During weeks 6, 7, and 8 the blood samples were also stained to determine the percentage of CD4+ Teff cells and CD4+ Treg cells present within the blood using the cellular markers CD44, CD25, and FoxP3. Details of the Abs used in the flow panels for weeks 6, 7, and 8 are listed below.
These same populations of cells were analyzed at week 8 within the spleen. In addition, the proliferative and secreted cytokine responses of total splenocytes in ex vivo recall cultures were tested in the presence of medium alone, anti-CD3 (1 ug/ml), the HY antigen DBY peptide (NAGFNSNRANSSRSS; Genemed Synthesis; San Antonio, Tex.) (10 ug/ml), irradiated male splenocytes (1:1 ratio), or irradiated female splenocytes (1:1 ratio).

[1] = week 6 post transplant, vs Control Ig

B1: C1ORF32 ECD-Fc (SEQ ID NO:42): fusion protein of human C1ORF32 ECD fused to mouse immunoglobulin Fc (human-mouse fusion protein) (protein)
chain: LQVTVPDKKKVAMLFQPTVLRCHFSTSSHQPAVVQWKFKSYCQDRMGESLGMSSTRAQSLSKRNLEWDPYLDCLDSRRTVRVVASKQGSTVTLGDFYRGREITIVHDADLQIGKLMWGDSGLYYCIITTPDDLEGKNEDSVELLVLGRTGLLADLLPSFAVEIMGSENLYFQGSGEPRGPTIKPCPPCKCPAPNLLGGPSVFIFPPKIKDVLMISLSPIVTCVVVDVSEDDPDVQISWFVNNVEVHTAQTQTHREDYNSTLRVVSALPIQHQDWMSGKEFKCKVNNKDLPAPIERTISKPKGSVRAPQVYVLPPPEEEMTKKQVTLTCMVTDFMPEDIYVEWTNNGKTELNYKNTEPVLDSDGSYFMYSKLRVEKKNWVERNSYSCSVVHEGLHNHHTTKSFSRTPGK
modifications: Fusion protein human C1ORF32-ECD fused to mouse IgG2a Fc
In the case of B1, the graft rejection (5 week dosing schedule beginning one week before transplant) is reported as “effective in preventing graft rejection”, the “male donor CD45.1+ cells present in the blood of recipient females” value (week 4 post transplant, maintained until week 8, 300 ug/dose i.p. 3x/wk for 5 wks) is reported as “highly significant number of male CD45.1+ cells were present” and the “effector/memory CD4+ T cells (CD45.1+/CD4+/CD44hi) within the blood” value [1] is reported as “decrease”. For the same molecule, the “resting CD4+ T cells (CD45.1+/CD4+/CD44lo) in blood” value [1] was “significantly higher percentage”, the “activated donor CD4+ T cells (CD45.1+/CD4+/CD25+/FoxP3-) in blood” value (week 7 post transplant, vs Control Ig) was “significantly lower percentage” and the “number of donor-derived (CD45.1+) CD4+/CD25+/FoxP3+ Treg cells and Treg subpopulations in spleen” value (week 8) was “striking increase”. For the same molecule, the “donor (CD45.1+) Tregs (FoxP3+CD25+) in blood” value (week 8, vs Control Ig) was “significant increase”, the “donor (CD45.1+) activated CD4+ T cells (FoxP3-CD25+) in blood” value (week 8, vs Control Ig) was “decrease” and the “donor (CD45.1+) effector/memory CD4+ T cells (CD44hi) in blood” value (week 8, vs Control Ig) was “significant increase”. The “number of endogenous-derived (CD45.2+) Tregs and Treg subtypes in spleen” value (week 8, vs Ig control group) was “reduced” and the “percentage and number of CD45.1+/CD4+ T cells within the spleen” value (week 8 post transplant) was “increased”.

From patent US20170275344A1, “POLYPEPTIDES AND USES THEREOF AS A DRUG FOR TREATMENT OF AUTOIMMUNE DISORDERS” (Compugen Ltd., priority 2014, published 2017)
